Data as given in the nanobody polyreactivity screen of Harvey et al. (2022).

experiment: yeast display, Sf9 membrane polyspecificity reagent, FACS + sequencing; frameworks hold sequencing errors
How it was run: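 Genes from sorted yeast were amplified by colony PCR, read by MiSeq 2 × 250 sequencing and filtered on CDR length. These cells carried a synthetic nanobody library in Saccharomyces cerevisiae BJ5465 and were sorted by FACS into low and high (top ~1%) gates on anti-HA and streptavidin fluorescence. Polyreactivity is labelled according to the gate of origin.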

| Sequence | polyreactivity (PSR sort gate) |
| --- | --- |
| QVHLVESGGGLVQAGGSLRLSCAASGRNFYANAMGWYRQAPGKERELVAAISSGGSTYYADSVKGRFTISRDNAKNTVYLQMKSLKPEDTAVYYCAVYTHKKVRPEYDYWGQGTQVTVSS | low polyreactivity |
| QVHLVESGGGLVQAGGSLRLSCAASGRTCRINAMGWYRQAPGKERELVAAITSGGRTNYADSVKGRFTISRDNAKNTVYLQMNSLKPEDTAVYYCAADTTHWYYLGYGYWGQGNQVTVSS | low polyreactivity |
| QVHLVESGGGLVQAGGSLRLSCAASGRTFATYALGWYRQAPGKERELVAAISSGGSTYYADSVKGRFTISRDNAKNTVYLQMNSLKPEDTAVYYCAAARKYYGYNYWGQGTQVTVSS | high polyreactivity |
| QVHLVESGGGLVQAGGSLRLSCAASGRTFDINAMGWYRQAPGKERELVAAISSRGGTTFYADSVKGRFTISRDHAKNTVYLQMNSLKPEDTAVYYCAAEYSSYYTRGGSYNYWGQGTQVTVSS | low polyreactivity |
| QVHLVESGGGLVQAGGSLRLSCAASGRTFDLNVMGWYRQAPGKERELVAAISFSGGSTYYADSVKGRFTISRDNAKNTVYLQMNSLKPEDTAVYYCSADEYSADSVPSWYDYWGQGTQVTVSS | high polyreactivity |
| QVHLVESGGGLVQAGGSLRLSCAASGRTFGINAMGWNRQAPGKERELVAVISFGDGGTYYADSVKGRFTISRDNAKNTVYLQMNSLKPEDTAVYYCATDYQSTSVWGGHFVINPYDYWGQGTQVTVSS | low polyreactivity |
| QVHLVESGGGLVQAGGSLRLSCAASGRTFGWNVMGWYRQAPGKERELVAAISGSGGSTYYADSVKVRFTISRDNAKNTVYLQMNSLKPEDTAVYYCAALYGPGREYDYWGQGTQVTVSS | low polyreactivity |
| QVHLVESGGGLVQAGGSLRLSCAASGRTFKGYAMGWYRQAPGKERELVASINWSDGNTYYADSVKGRFTISRDNAKNTVYLQMNSLKPEDTAVYYCNVRRGDRFVRHDYWGQGTQVTVSS | low polyreactivity |
| QVHLVESGGGLVQAGGSLRLSCAASGRTFKYNTMGWYRQAPGKERELVAVISRSGGRTYYADSVKGRFTISRDNAKNTVYFQMNSLKPEDTAVYYCAKGIPYSDPQSAYDDYWGQGTQVTVSS | high polyreactivity |
| QVHLVESGGGLVQAGGSLRLSCAASGRTFPYTAMGSYRQAPGKERELVAAISSGGSTNYADSVKGRFTISRDNAKNTVYLQMNSLKPEDTAVYYCATKYQRRPYRYYYWGQGTQVSVSS | low polyreactivity |
| QVHLVESGGGLVQAGGSLRLSCAASGRTFRSYAMGWYRQAPGKERELVAAISWSGGSTYYADSVKGRFTISRDNAKNTVYLQMNSLKPEDTAVYYCAASYFYFPYTSDEGYWGQGTQVTVSS | high polyreactivity |
| QVHLVESGGGLVQAGGSLRLSCAASGRTFYSYTMAWYRQAPGKERELVAAINRGGSTYYADSVKGRFTISRDKAKNTVYLQMNSLKEEDTAVYYFAVGYAHSSNRRYYYQKTHGYWGQGTQVTVSS | low polyreactivity |
| QVHLVESGGGLVQAGGSLRLSCAASGRTIKRYAMGWYRQAPGKERELVATISRSGSSTYYADSVKGRFTISRANAMNTVYLQMNSLKPEDTAVYYCNAYVPDIWVNGYDSWGQGTQVTVSS | high polyreactivity |
| QVHLVESGGGLVQAGGSLRLSCAASGRTYDYYAMGWYRQAHGKERELVAAIRLISGNTYYADSVKGRFTISRDNAKNTVYLQMNSLKPEDTAVYYCARQGYVLYYYWGQGTQVTVSS | low polyreactivity |
| QVHLVESGGGLVQAGGSLRLSCAASGSICNPYAMGWYRQAPGKEGELVAAINRGGTSTYYADSVKGRFTISRDNAKNNVYLQMNSLKPEDTAVYYCNADYPYYEDGDTVRDDYWGQGTQVTVSS | low polyreactivity |
| QVHLVESGGGLVQAGGSLRLSCAASGSIFGGYAMGWSRQAPGKERELVAAISYRGASTYYADSVKGRFTISRDNAKNTVYLQMNSLKPEDTAVYYCNADDRGSTYVDFDYWGQGTQVTVSS | low polyreactivity |
| QVHLVESGGGLVQAGGSLRLSCAASGSIFGNNAMGWYRQAPGKERELVAAISSGGSTNYADSVKGRFTISRDNAKNTVYLQMNSLKPEDTAFYYCAKHSWSRAFSWATRLHWRYDYWGQGTQVTVSS | low polyreactivity |
| QVHLVESGGGLVQAGGSLRLSCAASGSIFGPYVMGWYRQAPGKEREFVAAIRGSGGSTYYADTVKGRFTISRDNAKNTVYLQMTSLKPEDTAVYYCNASLKYTLYYYWGQGTQVTVSS | high polyreactivity |
| QVHLVESGGGLVQAGGSLRLSCAASGSIFGYNTMGWYRQAPGKERELVAAISYSSGSTHYADSVKGRFTISRVNAKNTVYLQMNSLKPEDTAVYYSTSVRRWSFGYWGQGTQVTVSS | low polyreactivity |
| QVHLVESGGGLVQAGGSLRLSCAASGSIFPRNAMGWYRQAPGKERELVAAISSGGGRTYYADSVKGRFTISRDNAKNTVYLQMNSLKPVDTAVYYCAREVWGYRWLYPVYILDYWGQGTQVTVSS | high polyreactivity |
| QVHLVESGGGLVQAGGSLRLSCAASGSIFQPYAIRWYRQAPGKERELVAAISSSGGSTTYADSVKGRFTISRDNAKNTVYLQMTSLKPEDTAVYYCAADSADDMGYWGQGTQVTVSS | low polyreactivity |
| QVHLVESGGGLVQAGGSLRLSCAASGSIFSLYAMGWYRQAPGKERELVAAITRSGAGTYYADSVKGRFTISRDNAKNTVYLQLNSLKPEDTAVYYCANRTKTPTGYVWGGYDYWGQGTQVTVSS | high polyreactivity |
| QVHLVESGGGLVQAGGSLRLSCAASGSIFSSNTMGWYRQATGKERELVAAISWSGGRTRYADSVKGRFTISRDNAKNTVYLQMNSLKPEDNAVYYCNAGTVASTLYDVRTHFDYWGQGTQVTVSS | low polyreactivity |
| QVHLVESGGGLVQAGGSLRLSCAASGSIFSVYTMGWYRQATGKEREFVPSIDWSAGSTNYADSVKGRFTISRDNAKNTVYFQRNSLKPEDTADDYCARAGSSWDTLYKYYLEHDYWGQGSQVTVSS | low polyreactivity |
| QVHLVESGGGLVQAGGSLRLSCAASGSIFSYYAMGWYRQAPGKERELVAAISQSGGSTYYADSVKGRFTISRDNAKNTVYLQMNSLKPEDTAVNYCNAGRGTFKRYTALQYWGQGTQVTVSS | low polyreactivity |
| QVHLVESGGGLVQAGGSLRLSCAASGSIFSYYGMGWYRQAPGKERELVAAITRSTGSTYYADSVKGRFTISRDYAKNTVYLQMNSLKPEDTAVYYCATEYVVLWEFDYWGQGTQVTVSS | low polyreactivity |
| QVHLVESGGGLVQAGGSLRLSCAASGSIFTYYAMGWYRQAPGKERELVAAISSDGSTTYADSVKGRFTISRDNAKNTVYLQMNSLKPEDTAVYYCAASSYNGHGYWGQGTQVTVSS | low polyreactivity |
| QVHLVESGGGLVQAGGSLRLSCAASGSIFVHNAMGWYRQAPGKESELVAGISARGASTYYADSVKGRFTISRDNAKNTVYLQMKSLKPEDTAVYYCAADRIPGYRVYGFYYWGQGTQVTVSS | low polyreactivity |
| QVHLVESGGGLVQAGGSLRLSCAASGSIFVPYAMGWYRKAPGKERELVAAITYSDGCTYYADSVKGRFTMSRDNAKNTVYLQMNSLKPEDTAVYYCATYPQYYFRYDYWGQGTQVTVSS | high polyreactivity |
| QVHLVESGGGLVQAGGSLRLSCAASGSIFYIYAMGWYRQAPGKERELVAGITSGGGTYYADSVKGRFTISRDNAKNTVYLQMNSLKPEDTAVYYCAADYLYDYDYWGQGTQVTVSS | high polyreactivity |
